The labels stand for the following.
T1: FcγRIIb extracellular domain with C-terminal His tag (human, UniProt P31994 43-217)
T1 construct: extracellular domain; Soluble receptor expressed in FreeStyle293 cells, used as analyte in Biacore; also called FcgRIIb; 2b; not shown: His tag attached to the C terminus
T1 sequence (looked up): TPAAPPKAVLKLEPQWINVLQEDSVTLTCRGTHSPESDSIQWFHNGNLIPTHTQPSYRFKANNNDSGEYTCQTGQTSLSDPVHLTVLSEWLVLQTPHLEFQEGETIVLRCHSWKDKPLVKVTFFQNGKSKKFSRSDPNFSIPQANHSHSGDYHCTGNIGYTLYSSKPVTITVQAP

B1: GpH7-A5/GpH7-B3 variant P271_08L/GpL16-k0 (antibody, human IgG1, kappa)
heavy 1: not shown
heavy 2: not shown
light: DIVMTQSPLSLPVTPGEPASISCQASESLVHSNRNTYLHWYLQKPGQSPQLLIYKVSNRFSGVPDRFSGSGSGTDFTLKISRVEAEDVGVYYCSQNTHVPPTFGQGTKVEIERTVAAPSVFIFPPSDEQLKSGTASVVCLLNNFYPREAKVQWKVDNALQSGNSQESVTEQDSKDSTYSLSSTLTLSKADYEKHKVYACEVTHQGLSSPVTKSFNRGEC
notes: Heterodimerized antibody (He Ab) with the mutation in only one H chain; also called He Ab P271L
B2: GpH7-A5/GpH7-B3 variant S267_16H/GpL16-k0 (antibody, human IgG1, kappa)
heavy 1: not shown
heavy 2: not shown
light: B1 light
notes: Heterodimerized antibody (He Ab) with the mutation in only one H chain; also called He Ab S267H
B3: GpH7-A5/GpH7-B3 variant S267_20W/GpL16-k0 (antibody, human IgG1, kappa)
heavy 1: not shown
heavy 2: not shown
light: B1 light
notes: Heterodimerized antibody (He Ab) with the mutation in only one H chain; also called He Ab S267W
B4: GpH7-A5/GpH7-B3 variant S267_19Q/GpL16-k0 (antibody, human IgG1, kappa)
heavy 1: not shown
heavy 2: not shown
light: B1 light
notes: Heterodimerized antibody (He Ab) with the mutation in only one H chain; also called He Ab S267Q
B5: GpH7-A5/GpH7-B3 variant H268_20W/GpL16-k0 (antibody, human IgG1, kappa)
heavy 1: not shown
heavy 2: not shown
light: B1 light
notes: Heterodimerized antibody (He Ab) with the mutation in only one H chain; also called He Ab H268W
B6: GpH7-A5/GpH7-B3 variant P271_01G/GpL16-k0 (antibody, human IgG1, kappa)
heavy 1: not shown
heavy 2: not shown
light: B1 light
notes: Heterodimerized antibody (He Ab) with the mutation in only one H chain; also called He Ab P271G
B7: GpH7-A5/GpH7-B3 variant S267_14T/GpL16-k0 (antibody, human IgG1, kappa)
heavy 1: not shown
heavy 2: not shown
light: B1 light
notes: Heterodimerized antibody (He Ab) with the mutation in only one H chain; also called He Ab S267T
B8: GpH7-A5/GpH7-B3 variant S267_15Y/GpL16-k0 (antibody, human IgG1, kappa)
heavy 1: not shown
heavy 2: not shown
light: B1 light
notes: Heterodimerized antibody (He Ab) with the mutation in only one H chain; also called He Ab S267Y
B9: GpH7-A5/GpH7-B3 variant S324_01G/GpL16-k0 (He Ab) (antibody, human IgG1, kappa)
heavy 1: not shown
heavy 2: not shown
light: B1 light
notes: Heterodimerized anti-glypican-3 antibody; the alteration stands only in the GpH7-B3 chain
B10: GpH7-A5/GpH7-B3 variant T335_05P/GpL16-k0 (He Ab) (antibody, human IgG1, kappa)
heavy 1: not shown
heavy 2: not shown
light: B1 light
notes: as for B9
B11: GpH7-A5/GpH7-B3 variant S337_01G/GpL16-k0 (He Ab) (antibody, human IgG1, kappa)
heavy 1: not shown
heavy 2: not shown
light: B1 light
notes: as for B9
B12: GpH7-A5/GpH7-B3 variant S324_20W/GpL16-k0 (He Ab) (antibody, human IgG1, kappa)
heavy 1: not shown
heavy 2: not shown
light: B1 light
notes: as for B9
B13: GpH7-A5/GpH7-B3 variant S239_18N/GpL16-k0 (He Ab) (antibody, human IgG1, kappa)
heavy 1: not shown
heavy 2: not shown
light: B1 light
notes: as for B9
B14: GpH7-A5/GpH7-B3 variant S324_14T/GpL16-k0 (He Ab) (antibody, human IgG1, kappa)
heavy 1: not shown
heavy 2: not shown
light: B1 light
notes: as for B9
B15: GpH7-A5/GpH7-B3 variant T335_06M/GpL16-k0 (He Ab) (antibody, human IgG1, kappa)
heavy 1: not shown
heavy 2: not shown
light: B1 light
notes: as for B9
B16: GpH7-A5/GpH7-B3 variant S239_10E/GpL16-k0 (He Ab) (antibody, human IgG1, kappa)
heavy 1: not shown
heavy 2: not shown
light: B1 light
notes: as for B9
B17: GpH7-A5/GpH7-B3 variant S337_16H/GpL16-k0 (He Ab) (antibody, human IgG1, kappa)
heavy 1: not shown
heavy 2: not shown
light: B1 light
notes: as for B9
B18: GpH7-A5/GpH7-B3 variant T335_08L/GpL16-k0 (He Ab) (antibody, human IgG1, kappa)
heavy 1: not shown
heavy 2: not shown
light: B1 light
notes: as for B9
B19: GpH7-A5/GpH7-B3 variant S324_06M/GpL16-k0 (He Ab) (antibody, human IgG1, kappa)
heavy 1: not shown
heavy 2: not shown
light: B1 light
notes: as for B9
B20: GpH7-A5/GpH7-B3 variant S324_09D/GpL16-k0 (He Ab) (antibody, human IgG1, kappa)
heavy 1: not shown
heavy 2: not shown
light: B1 light
notes: as for B9
B21: GpH7-A5/GpH7-B3 variant S298_03V/GpL16-k0 (He Ab) (antibody, human IgG1, kappa)
heavy 1: not shown
heavy 2: not shown
light: B1 light
notes: as for B9

T2 sequence (P08637 17-208): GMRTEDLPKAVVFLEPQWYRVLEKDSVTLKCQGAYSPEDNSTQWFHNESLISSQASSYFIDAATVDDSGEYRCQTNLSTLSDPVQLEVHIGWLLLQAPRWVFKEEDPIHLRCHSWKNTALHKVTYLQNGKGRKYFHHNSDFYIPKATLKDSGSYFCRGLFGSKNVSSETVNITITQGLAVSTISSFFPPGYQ

The first assay addresses T2, FcγRIIIa extracellular domain with C-terminal His tag (human, UniProt P08637 17-208).
T2 construct: extracellular domain; also called FcgRIIIa; 3a; not shown: His tag attached to the C terminus
Put plainly: SPR (Biacore); He/Con_3a (FcγRIIIa) divided by He/Con_2b (FcγRIIb).
As for B1, the “He_3a/2b (IIIa/IIb)” value was determined as 0.69 ratio.
B2: the “He_3a/2b (IIIa/IIb)” value was found to be 0.27 ratio.
Same read-out and setting: the result for B3 reads 0.37 ratio.
On the same count and under the same terms, the result for B4 reads 0.3 ratio; that for B5, 0.74 ratio.
Still for that read-out and setting: the result for B6 reads 0.59 ratio; that for B7, 0.44 ratio.
Regarding B8, the “He_3a/2b (IIIa/IIb)” value was found to be 0.31 ratio.

The next assay has as its target T2, FcγRIIIa extracellular domain with …. Put plainly: SPR (Biacore T100), antibody captured on antigen peptide chip, FcγR as analyte. How it is done:
(§1) Analysis of interaction between objective antibody and the FcγR was carried out using Biacore T100 (GE Healthcare). HBS-EP+ (GE Healthcare) was used as the running buffer, and the measurement temperature was set to 25° C. Chips produced by immobilizing the antigen peptide by the amine coupling method to a Series S Sencor Chip CM5 (GE Healthcare), or alternatively, chips produced by allowing preliminarily biotinylated antigen peptides to interact with and immobilize onto a Series S Sensor Chip SA (certified) (GE Healthcare) were used. Antibodies of interest were captured onto an antigen peptide-immobilized chip, and allowed to interact to each FcγR diluted with running buffer. To regenerate and repeatedly use the chip, the antibodies captured on the chip were washed off by reacting 10 mM glycine-HCl, pH 1.5.
For the molecule B1, the He/Con_3a was 71 relative binding, GpH7-A5/GpH7-B3/GpL16-k0 = 100.
On the same count and under the same terms, the result for B2 reads 17.9 relative binding, GpH7-A5/GpH7-B3/GpL16-k0 = 100; that for B3, 21.5 relative binding, GpH7-A5/GpH7-B3/GpL16-k0 = 100.
On the same count and under the same terms, to B4 belongs 65 relative binding, GpH7-A5/GpH7-B3/GpL16-k0 = 100; to B5, 82.8 relative binding, GpH7-A5/GpH7-B3/GpL16-k0 = 100; to B6, 113 relative binding, GpH7-A5/GpH7-B3/GpL16-k0 = 100.
Still for that read-out and setting: the result for B7 reads 45.6 relative binding, GpH7-A5/GpH7-B3/GpL16-k0 = 100; that for B8, 11.8 relative binding, GpH7-A5/GpH7-B3/GpL16-k0 = 100.

A further assay has as its target T1, FcγRIIb extracellular domain with …. The description is as above. How it is done: as §1
B1: the He/Con_2b was 103 relative binding, GpH7-A5/GpH7-B3/GpL16-k0 = 100.
The same measure, in the same setting: the result for B2 reads 65.9 relative binding, GpH7-A5/GpH7-B3/GpL16-k0 = 100; that for B3, 57.2 relative binding, GpH7-A5/GpH7-B3/GpL16-k0 = 100; that for B4, 218 relative binding, GpH7-A5/GpH7-B3/GpL16-k0 = 100.
For B5, the He/Con_2b was 111 relative binding, GpH7-A5/GpH7-B3/GpL16-k0 = 100.
The same measure, in the same setting: to B6 belongs 193 relative binding, GpH7-A5/GpH7-B3/GpL16-k0 = 100.
With B7, the He/Con_2b is 104 relative binding, GpH7-A5/GpH7-B3/GpL16-k0 = 100.
Consider B8, for which the He/Con_2b is 37.9 relative binding, GpH7-A5/GpH7-B3/GpL16-k0 = 100.

For another assay, the target named is T3, FcγRIIIa (human, UniProt P08637 17-208).
T3 construct: extracellular domain; also called 3a; FcgRIIIa
T3 sequence (P08637 17-208): as above
As to the kind of experiment: SPR (Biacore), antibody captured on antigen-peptide chip, FcγR as analyte; binding of He Ab / binding of HeCon Ab GpH7-A5/GpH7-B3/GpL16-k0 x 100.
Take B9: the He/Con_3a is 105 relative to control = 100.
Still for that read-out and setting: to B10 belongs 105 relative to control = 100; to B11, 102 relative to control = 100.
Consider B12, for which the He/Con_3a was 102 relative to control = 100.
The same measure, in the same setting: to B13 belongs 110 relative to control = 100.
On the same count and under the same terms, to B14 belongs 103 relative to control = 100; to B15, 102 relative to control = 100; to B16, 181 relative to control = 100.
The same measure, in the same setting: the result for B17 reads 108 relative to control = 100.
On to B18, for which the He/Con_3a is 102 relative to control = 100.
Same read-out and setting: to B19 belongs 113 relative to control = 100; to B20, 101 relative to control = 100; to B21, 109 relative to control = 100.

The record behind these values is patent US20150344570A1 (published 2015).
